{
  "source": "patent US20190345209",
  "origin": "cited, not measured here",
  "system": "BCR-ABL1 zinc finger protein (three-finger ZFP) (synthetic construct)",
  "details": "CITED (ref 50); p122 prints 78 uM, evidently a typo",
  "data": [
    {"sequence": "GCAGAAGCC (double strand) [BCR-ABL1 9 bp binding site (in Go92, Go66, Go85 promoters)]", "values": [
      {"measurement": "Kd", "value": 78, "unit": "pM"}
    ]}
  ]
}
